Assay results published in paper PMC11390915, “Histones and histone variant families in prokaryotes” (Nature Communications, 2024).

Target: the molecule itself
Assay: crystal structure; HTkC at 4.0 mg/mL in 50 mM Tris-HCl pH 7.0, 100 mM KCl, 10% glycerol; sitting drop vapor diffusion, reservoir 0.01 M trisodium citrate, 33% (w/v) PEG 6000; space group P2(1)2(1)2(1), 1.84 Å; four monomers in the asymmetric unit

B1: face-to-face (FtF) histone from Thermococcus kodakarensis (HTkC) (natural protein)
chain: MAEMLVKSKVKEFVKSVDPEMRVSPEFYDALEAEVKALVEKAIKRAQAEGRKTLYARHV
notes: Face-to-face (FtF) histone HTkC of Thermococcus kodakarensis, product of gene TK1040; synthesized gene cloned into pET30b (plasmid pRD503); The purification used heat, heparin and SEC only, so the protein is probably untagged (surmised); Oligonucleotides for cloning are in the Supplementary Information; also called FtF histone HTkC; TK1040; source: E. coli BL21(DE3)pLysS, purified (heating at 70 …)
In the case of B1, the “stoichiometry N” value is reported as 4.
